Test [1] addresses trypsin.
Test [2] addresses recombinant plasminogen activator rPA (recombinant tPA derivative comprising the kringle 2 and protease domains) (Homo sapiens (Human)) (UniProt P00750). As to the kind of experiment: affinity column: inhibitor coupled to CNBr-Sepharose, loaded with 2 MU r-PA/ml gel, eluted rPA by S2288 amidolytic activity, run 1.
For test [3] the target is unchanged. In words: affinity column: inhibitor coupled to CNBr-Sepharose, loaded with 2 MU r-PA/ml gel, eluted rPA by S2288 amidolytic activity, run 2.
Test [4] has the same target. As to the kind of experiment: affinity column: inhibitor coupled to CNBr-Sepharose, loaded with 2 MU r-PA/ml gel, eluted rPA by S2288 amidolytic activity, run 3.
Test [5] has the same target. As to the kind of experiment: affinity column: inhibitor coupled to CNBr-Sepharose, loaded with 2 MU r-PA/ml gel, eluted rPA by S2288 amidolytic activity, run 4.
For test [6] the target is unchanged. In words: affinity column: inhibitor coupled to CNBr-Sepharose, loaded with 2 MU r-PA/ml gel, eluted rPA by S2288 amidolytic activity, run 5.
Test [7] has the same target. In words: affinity column: inhibitor coupled to CNBr-Sepharose, eluted rPA; reference seed-ETI-Sepharose.

In the case of “ETI isolated from the seeds of Erythrina caffra [ETI (seeds)] (from UniProt P09943)”, the specific activity (U/mg), inhibition of trypsin with BAPA as substrate in test [1] came out at 0.88 U/mg. The Binding capacity MU/ml in test [2] was found to be 1.04 MU/ml; in test [3], 0.95 MU/ml; in test [4], 1.08 MU/ml; in test [5], 1.01 MU/ml; in test [6], 0.98 MU/ml.

Substance “SerETI (recombinant ETI polypeptide in which the N-terminal Val is replaced by Ser)” had a specific activity (U/mg), inhibition of trypsin with BAPA as substrate in test [1] of 1.5 U/mg. Also, the fold higher binding capacity than seed-ETI-Sepharose in test [7] stood at 1.5 fold. Besides, the Binding capacity MU/ml in test [2] was 1.28 MU/ml; in test [3], 1.35 MU/ml; in test [4], 1.53 MU/ml; in test [5], 1.48 MU/ml; in test [6], 1.49 MU/ml.

As for “recombinant, non-modified ETI (recETI) (from UniProt P09943)”, the specific activity (U/mg), inhibition of trypsin with BAPA as substrate in test [1] is 1.07 U/mg.

The record behind these values is patent US5973118.
